{
  "source": "paper PMC5092059",
  "key": {"3H-gabapentin": {"target": "3H-gabapentin", "assay": "3H-gabapentin radioligand saturation binding", "settings": "DRM fractions from transfected tsA-201 cells; n = 4"}, "[1]": {"target": "GFP-CaV2.2 (rabbit CaV2.2 with an N-terminal GFP) (rabbit) (UniProt Q05152)", "sequence (Q05152 whole entry)": "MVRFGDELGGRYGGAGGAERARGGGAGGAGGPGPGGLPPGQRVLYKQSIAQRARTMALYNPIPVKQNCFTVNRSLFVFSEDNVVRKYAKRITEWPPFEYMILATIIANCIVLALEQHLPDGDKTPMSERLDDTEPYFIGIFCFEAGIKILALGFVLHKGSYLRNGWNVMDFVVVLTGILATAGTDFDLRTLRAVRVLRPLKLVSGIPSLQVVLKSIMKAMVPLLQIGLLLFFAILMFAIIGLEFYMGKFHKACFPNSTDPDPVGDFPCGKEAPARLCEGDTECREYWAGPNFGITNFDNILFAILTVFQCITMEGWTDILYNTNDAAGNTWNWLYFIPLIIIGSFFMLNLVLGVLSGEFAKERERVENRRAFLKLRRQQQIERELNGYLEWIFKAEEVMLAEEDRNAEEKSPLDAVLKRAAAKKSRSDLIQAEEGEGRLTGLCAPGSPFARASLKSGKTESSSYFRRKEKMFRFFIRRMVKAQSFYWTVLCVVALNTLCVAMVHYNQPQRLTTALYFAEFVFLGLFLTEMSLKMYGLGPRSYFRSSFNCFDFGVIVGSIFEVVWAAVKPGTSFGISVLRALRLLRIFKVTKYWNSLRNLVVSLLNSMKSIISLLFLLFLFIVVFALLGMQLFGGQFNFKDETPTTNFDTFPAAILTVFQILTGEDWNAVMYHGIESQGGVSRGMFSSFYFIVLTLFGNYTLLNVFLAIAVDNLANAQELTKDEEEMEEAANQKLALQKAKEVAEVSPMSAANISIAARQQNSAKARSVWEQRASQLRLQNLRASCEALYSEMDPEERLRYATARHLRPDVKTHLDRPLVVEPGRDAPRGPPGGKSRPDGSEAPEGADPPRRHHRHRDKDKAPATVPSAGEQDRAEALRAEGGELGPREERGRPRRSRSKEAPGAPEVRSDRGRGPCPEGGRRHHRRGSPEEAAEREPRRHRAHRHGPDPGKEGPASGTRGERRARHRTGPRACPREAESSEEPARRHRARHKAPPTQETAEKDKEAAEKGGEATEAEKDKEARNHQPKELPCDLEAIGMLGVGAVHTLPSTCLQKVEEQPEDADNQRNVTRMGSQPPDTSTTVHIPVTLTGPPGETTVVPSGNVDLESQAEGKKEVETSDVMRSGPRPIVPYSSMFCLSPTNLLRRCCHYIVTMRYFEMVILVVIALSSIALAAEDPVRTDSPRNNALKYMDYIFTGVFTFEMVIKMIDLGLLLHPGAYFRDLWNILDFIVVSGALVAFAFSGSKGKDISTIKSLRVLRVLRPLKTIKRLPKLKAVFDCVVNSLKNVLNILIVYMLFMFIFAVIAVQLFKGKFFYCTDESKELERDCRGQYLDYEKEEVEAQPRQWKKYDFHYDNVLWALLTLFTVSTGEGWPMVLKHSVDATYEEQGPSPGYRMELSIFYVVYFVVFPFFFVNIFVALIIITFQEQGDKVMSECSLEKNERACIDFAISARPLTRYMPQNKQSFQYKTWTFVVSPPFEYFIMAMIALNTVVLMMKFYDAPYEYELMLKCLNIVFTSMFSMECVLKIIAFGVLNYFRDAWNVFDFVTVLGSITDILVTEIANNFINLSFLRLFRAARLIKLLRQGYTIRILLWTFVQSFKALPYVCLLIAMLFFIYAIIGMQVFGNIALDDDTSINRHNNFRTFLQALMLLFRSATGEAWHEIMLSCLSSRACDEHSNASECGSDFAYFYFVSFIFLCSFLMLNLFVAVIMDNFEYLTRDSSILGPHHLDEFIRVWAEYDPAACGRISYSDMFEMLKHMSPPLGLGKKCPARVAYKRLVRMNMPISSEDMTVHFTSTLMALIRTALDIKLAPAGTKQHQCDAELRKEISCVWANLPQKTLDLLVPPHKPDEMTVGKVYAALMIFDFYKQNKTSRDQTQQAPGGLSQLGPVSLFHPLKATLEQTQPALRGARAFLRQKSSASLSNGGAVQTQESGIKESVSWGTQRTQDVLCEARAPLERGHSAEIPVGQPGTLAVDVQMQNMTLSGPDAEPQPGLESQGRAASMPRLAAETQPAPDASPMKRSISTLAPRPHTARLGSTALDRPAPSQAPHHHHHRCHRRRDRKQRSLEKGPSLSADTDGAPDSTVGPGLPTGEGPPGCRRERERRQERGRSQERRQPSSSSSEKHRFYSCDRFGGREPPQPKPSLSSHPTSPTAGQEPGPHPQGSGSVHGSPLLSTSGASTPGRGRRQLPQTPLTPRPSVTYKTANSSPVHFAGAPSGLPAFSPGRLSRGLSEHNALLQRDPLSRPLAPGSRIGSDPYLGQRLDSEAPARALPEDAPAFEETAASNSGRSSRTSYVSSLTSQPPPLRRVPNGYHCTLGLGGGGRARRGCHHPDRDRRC"}},
  "data": [
    {"substance": "wild type α2δ-1 (rat) (from UniProt P54290) LEAVEM replaced by VVVVVV (hexavaline, V6)", "values": [
      {"measurement": "Kd", "setting": "3H-gabapentin", "result": 68.3, "unit": "nM"}
    ]},
    {"substance": "α2(3C)δ-1 (rat α2δ-1 with the endogenous cleavage motif replaced by a Human Rhinovirus 3C-protease site) (natural protein)", "values": [
      {"measurement": "decrease in α2δ-1 immunostaining in hippocampal neurites after co-transfection with CaV2.2-HA/β1b, α2(3C)δ-1 relative to WT α2δ-1", "setting": "[1]", "result": 37, "unit": "%"}
    ]}
  ]
}
